According to PMC9900698, “Phosphorylation Regulation of a Histone-like HU Protein from Deinococcus radiodurans”:

T1: DrHU WT (Deinococcus radiodurans R1 (ATCC13939), UniProt Q9RZ89 1-122)
T1 sequence: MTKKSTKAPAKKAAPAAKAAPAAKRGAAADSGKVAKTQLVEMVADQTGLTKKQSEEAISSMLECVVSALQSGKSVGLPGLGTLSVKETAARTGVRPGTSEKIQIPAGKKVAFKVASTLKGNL

B1: Duplex DNA (48bp) (dsDNA)
DNA 1: TAACAAGCAGAGTCAATTATGTCAATGACATAAAAGGCTCAGGCCTTC
DNA 2: GAAGGCCTGAGCCTTTTATGTCATTGACATAATTGACTCTGCTTGTTA
B2: Duplex DNA (36bp) (dsDNA)
DNA 1: GCAGAGTCAATTATGTCAATGACATAAAAGGCTCAG
DNA 2: CTGAGCCTTTTATGTCATTGACATAATTGACTCTGC
B3: Duplex DNA (24bp) (dsDNA)
DNA 1: TCAATTATGTCAATGACATAAAAG
DNA 2: CTTTTATGTCATTGACATAATTGA

The binders below were run against T1, DrHU WT (assay: EMSA; 10 mM Mg2+; EMSA: 50 mM NaCl, 20 mM Tris-HCl pH 8.0, 0.1 mg/ml BSA, 3 mM DTT, 0.1 mM EDTA, 10% glycerol, 10 mM MgCl2, 50 nM DNA, 0-3200 nM DrHU, room temperature 20 min; 22% native PAGE in 1x TB). Conditions: protein: recombinant; tags: N-terminal His-MBP (pET28a-HMT), removed by TEV; chain copies: 2; label: 5'-FAM; blunt.
B1 was tested, and the Kd was 449 ± 29.6 nM. B2 gave a Kd of 1350 ± 200 nM. Work on B3 yielded a Kd of 1480 ± 41.8 nM.
